Results published in patent US20180155451A1 (published 2018).

T1: FcγRIIb extracellular domain with C-terminal His tag (human, UniProt P31994 43-217)
T1 construct: extracellular domain; also called 2b; FcgRIIb
T1 sequence (looked up): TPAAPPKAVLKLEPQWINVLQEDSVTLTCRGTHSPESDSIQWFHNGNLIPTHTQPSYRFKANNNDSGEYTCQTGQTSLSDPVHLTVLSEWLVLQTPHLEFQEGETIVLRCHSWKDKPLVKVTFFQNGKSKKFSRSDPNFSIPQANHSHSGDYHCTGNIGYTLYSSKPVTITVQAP


What was measured:
[1] = target: T2, FcγRIIIa extracellular domain with C-terminal His tag (human, UniProt P08637 17-208); assay: SPR, relative to GpH7-A5/GpH7-B3/GpL16-k0
T2 construct: extracellular domain; also called 3a; FcgRIIIa
Method: (§1) The heterodimerized antibodies He Abs in which one of the H chains was introduced with an alteration were assayed for their binding activities to each activating FcγR and inhibitory FcγR according to the method described in Example 4. […] The activating FcγRs in FIGS. 26, 27, 28, and 29 are FcγRIa, FcγRIIa (R), FcγRIIa (H), and FcγRIIIa, respectively.
(§2) Analysis of interaction between objective antibody and the FcγR was carried out using Biacore T100 (GE Healthcare). HBS-EP+ (GE Healthcare) was used as the running buffer, and the measurement temperature was set to 25° C. Chips produced by immobilizing the antigen peptide by the amine coupling method to a Series S Sencor Chip CM5 (GE Healthcare), or alternatively, chips produced by allowing preliminarily biotinylated antigen peptides to interact with and immobilize onto a Series S Sensor Chip SA (certified) (GE Healthcare) were used. Antibodies of interest were captured onto an antigen peptide-immobilized chip, and allowed to interact to each FcγR diluted with running buffer. To regenerate and repeatedly use the chip, the antibodies captured on the chip were washed off by reacting 10 mM glycine-HCl, pH 1.5.

[2] = target: T1, FcγRIIb extracellular domain with …; assay: SPR, relative to GpH7-A5/GpH7-B3/GpL16-k0
Method: as §1, §2

T2 sequence (P08637 17-208): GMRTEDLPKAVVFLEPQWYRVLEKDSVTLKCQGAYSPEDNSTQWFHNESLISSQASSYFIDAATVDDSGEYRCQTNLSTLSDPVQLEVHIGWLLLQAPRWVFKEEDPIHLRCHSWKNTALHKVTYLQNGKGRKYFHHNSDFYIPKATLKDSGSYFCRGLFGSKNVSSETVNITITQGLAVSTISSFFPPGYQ

Row | He/Con_3a [1] | He/Con_2b [2] | Binder
1 | 106 control=100 | 79.7 control=100 | GpH7-A5/GpH7-B3 variant Q295_02A/GpL16-k0 (antibody, human IgG1, kappa, He Ab: alteration in one H chain only; also called He Ab) heavy 1: not shown heavy 2: not shown light: DIVMTQSPLSLPVTPGEPASISCQASESLVHSNRNTYLHWYLQKPGQSPQLLIYKVSNRFSGVPDRFSGSGSGTDFTLKISRVEAEDVGVYYCSQNTHVPPTFGQGTKVEIERTVAAPSVFIFPPSDEQLKSGTASVVCLLNNFYPREAKVQWKVDNALQSGNSQESVTEQDSKDSTYSLSSTLTLSKADYEKHKVYACEVTHQGLSSPVTKSFNRGEC
2 | 118 control=100 | 99.8 control=100 | GpH7-A5/GpH7-B3 variant L234_04F/GpL16-k0 (antibody, human IgG1, kappa, He Ab: alteration in one H chain only; also called He Ab) heavy 1: not shown heavy 2: not shown light: DIVMTQSPLSLPVTPGEPASISCQASESLVHSNRNTYLHWYLQKPGQSPQLLIYKVSNRFSGVPDRFSGSGSGTDFTLKISRVEAEDVGVYYCSQNTHVPPTFGQGTKVEIERTVAAPSVFIFPPSDEQLKSGTASVVCLLNNFYPREAKVQWKVDNALQSGNSQESVTEQDSKDSTYSLSSTLTLSKADYEKHKVYACEVTHQGLSSPVTKSFNRGEC
3 | 104 control=100 | 76.1 control=100 | GpH7-A5/GpH7-B3 variant A330_20W/GpL16-k0 (antibody, human IgG1, kappa, He Ab: alteration in one H chain only; also called He Ab) heavy 1: not shown heavy 2: not shown light: DIVMTQSPLSLPVTPGEPASISCQASESLVHSNRNTYLHWYLQKPGQSPQLLIYKVSNRFSGVPDRFSGSGSGTDFTLKISRVEAEDVGVYYCSQNTHVPPTFGQGTKVEIERTVAAPSVFIFPPSDEQLKSGTASVVCLLNNFYPREAKVQWKVDNALQSGNSQESVTEQDSKDSTYSLSSTLTLSKADYEKHKVYACEVTHQGLSSPVTKSFNRGEC
4 | 105 control=100 | 83.8 control=100 | GpH7-A5/GpH7-B3 variant E333_02A/GpL16-k0 (antibody, human IgG1, kappa, He Ab: alteration in one H chain only; also called He Ab) heavy 1: not shown heavy 2: not shown light: DIVMTQSPLSLPVTPGEPASISCQASESLVHSNRNTYLHWYLQKPGQSPQLLIYKVSNRFSGVPDRFSGSGSGTDFTLKISRVEAEDVGVYYCSQNTHVPPTFGQGTKVEIERTVAAPSVFIFPPSDEQLKSGTASVVCLLNNFYPREAKVQWKVDNALQSGNSQESVTEQDSKDSTYSLSSTLTLSKADYEKHKVYACEVTHQGLSSPVTKSFNRGEC
5 | 111 control=100 | 87.1 control=100 | GpH7-A5/GpH7-B3 variant I332_01G/GpL16-k0 (antibody, human IgG1, kappa, He Ab: alteration in one H chain only; also called He Ab) heavy 1: not shown heavy 2: not shown light: DIVMTQSPLSLPVTPGEPASISCQASESLVHSNRNTYLHWYLQKPGQSPQLLIYKVSNRFSGVPDRFSGSGSGTDFTLKISRVEAEDVGVYYCSQNTHVPPTFGQGTKVEIERTVAAPSVFIFPPSDEQLKSGTASVVCLLNNFYPREAKVQWKVDNALQSGNSQESVTEQDSKDSTYSLSSTLTLSKADYEKHKVYACEVTHQGLSSPVTKSFNRGEC
6 | 103 control=100 | 81.8 control=100 | GpH7-A5/GpH7-B3 variant E333_13S/GpL16-k0 (antibody, human IgG1, kappa, He Ab: alteration in one H chain only; also called He Ab) heavy 1: not shown heavy 2: not shown light: DIVMTQSPLSLPVTPGEPASISCQASESLVHSNRNTYLHWYLQKPGQSPQLLIYKVSNRFSGVPDRFSGSGSGTDFTLKISRVEAEDVGVYYCSQNTHVPPTFGQGTKVEIERTVAAPSVFIFPPSDEQLKSGTASVVCLLNNFYPREAKVQWKVDNALQSGNSQESVTEQDSKDSTYSLSSTLTLSKADYEKHKVYACEVTHQGLSSPVTKSFNRGEC
7 | 103 control=100 | 93.2 control=100 | GpH7-A5/GpH7-B3 variant E333_03V/GpL16-k0 (antibody, human IgG1, kappa, He Ab: alteration in one H chain only; also called He Ab) heavy 1: not shown heavy 2: not shown light: DIVMTQSPLSLPVTPGEPASISCQASESLVHSNRNTYLHWYLQKPGQSPQLLIYKVSNRFSGVPDRFSGSGSGTDFTLKISRVEAEDVGVYYCSQNTHVPPTFGQGTKVEIERTVAAPSVFIFPPSDEQLKSGTASVVCLLNNFYPREAKVQWKVDNALQSGNSQESVTEQDSKDSTYSLSSTLTLSKADYEKHKVYACEVTHQGLSSPVTKSFNRGEC
8 | 104 control=100 | 98.4 control=100 | GpH7-A5/GpH7-B3 variant I332_13S/GpL16-k0 (antibody, human IgG1, kappa, He Ab: alteration in one H chain only; also called He Ab) heavy 1: not shown heavy 2: not shown light: DIVMTQSPLSLPVTPGEPASISCQASESLVHSNRNTYLHWYLQKPGQSPQLLIYKVSNRFSGVPDRFSGSGSGTDFTLKISRVEAEDVGVYYCSQNTHVPPTFGQGTKVEIERTVAAPSVFIFPPSDEQLKSGTASVVCLLNNFYPREAKVQWKVDNALQSGNSQESVTEQDSKDSTYSLSSTLTLSKADYEKHKVYACEVTHQGLSSPVTKSFNRGEC
9 | 103 control=100 | 83.3 control=100 | GpH7-A5/GpH7-B3 variant E333_16H/GpL16-k0 (antibody, human IgG1, kappa, He Ab: alteration in one H chain only; also called He Ab) heavy 1: not shown heavy 2: not shown light: DIVMTQSPLSLPVTPGEPASISCQASESLVHSNRNTYLHWYLQKPGQSPQLLIYKVSNRFSGVPDRFSGSGSGTDFTLKISRVEAEDVGVYYCSQNTHVPPTFGQGTKVEIERTVAAPSVFIFPPSDEQLKSGTASVVCLLNNFYPREAKVQWKVDNALQSGNSQESVTEQDSKDSTYSLSSTLTLSKADYEKHKVYACEVTHQGLSSPVTKSFNRGEC
10 | 104 control=100 | 87.6 control=100 | GpH7-A5/GpH7-B3 variant A330_16H/GpL16-k0 (antibody, human IgG1, kappa, He Ab: alteration in one H chain only; also called He Ab) heavy 1: not shown heavy 2: not shown light: DIVMTQSPLSLPVTPGEPASISCQASESLVHSNRNTYLHWYLQKPGQSPQLLIYKVSNRFSGVPDRFSGSGSGTDFTLKISRVEAEDVGVYYCSQNTHVPPTFGQGTKVEIERTVAAPSVFIFPPSDEQLKSGTASVVCLLNNFYPREAKVQWKVDNALQSGNSQESVTEQDSKDSTYSLSSTLTLSKADYEKHKVYACEVTHQGLSSPVTKSFNRGEC
